Test results published in PMC4118585.

B1: myc-tagged FIP4 (FIP4-myc), full length (natural protein)
chain: MAGGAGWSGAPAALLRSVRRLREVFEVCGRDPDGFLRVERVAALGLRFGQGEEVEKLVKYLDPNDLGRINFKDFCRGVFAMKGCEELLKDVLSVESAGTLPCAPEIPDCVEQGSEVTGPTFADGELIPREPGFFPEDEEEAMTLAPPEGPQELYTDSPMESTQSLEGSVGSPAEKDGGLGGLFLPEDKSLVHTPSMTTSDLSTHSTTSLISNEEQFEDYGEGDDVDCAPSSPCPDDETRTNVYSDLGSSVSSSAGQTPRKMRHVYNSELLDVYCSQCCKKINLLNDLEARLKNLKANSPNRKISSTAFGRQLMHSSNFSSSNGSTEDLFRDSIDSCDNDITEKVSFLEKKVTELENDSLTNGDLKSKLKQENTQLVHRVHELEEMVKDQETTAEQALEEEARRHREAYGKLEREKATEVELLNARVQQLEEENTELRTTVTRLKSQTEKLDEERQRMSDRLEDTSLRLKDEMDLYKRMMDKLRQNRLEFQKEREATQELIEDLRKELEHLQMYKLDCERPGRGRSASSGLGEFNARAREVELEHEVKRLKQENYKLRDQNDDLNGQILSLSLYEAKNLFAAQTKAQSLAAEIDTASRDELMEALKEQEEINFRLRQYMDKIILAILDHNPSILEIKH
B2: myc-tagged FIP3 (FIP3-myc) (natural protein)
chain: MASAPPASPPGSEPPGPDPEPGGPDGPGAAQLAPGPAELRLGAPVGGPDPQSPGLDEPAPGAAADGGARWSAGPAPGLEGGPRDPGPSAPPPRSGPRGQLASPDAPGPGPRSEAPLPELDPLFSWTEEPEECGPASCPESAPFRLQGSSSSHRARGEVDVFSPFPAPTAGELALEQGPGSPPQPSDLSQTHPLPSEPVGSQEDGPRLRAVFDALDGDGDGFVRIEDFIQFATVYGAEQVKDLTKYLDPSGLGVISFEDFYQGITAIRNGDPDGQCYGGVASAQDEEPLACPDEFDDFVTYEANEVTDSAYMGSESTYSECETFTDEDTSTLVHPELQPEGDADSAGGSAVPSECLDAMEEPDHGALLLLPGRPHPHGQSVITVIGGEEHFEDYGEGSEAELSPETLCNGQLGCSDPAFLTPSPTKRLSSKKVARYLHQSGALTMEALEDPSPELMEGPEEDIADKVVFLERRVLELEKDTAATGEQHSRLRQENLQLVHRANALEEQLKEQELRACEMVLEETRRQKELLCKMEREKSIEIENLQTRLQQLDEENSELRSCTPCLKANIERLEEEKQKLLDEIESLTLRLSEEQENKRRMGDRLSHERHQFQRDKEATQELIEDLRKQLEHLQLLKLEAEQRRGRSSSMGLQEYHSRARESELEQEVRRLKQDNRNLKEQNEELNGQIITLSIQGAKSLFSTAFSESLAAEISSVSRDELMEAIQKQEEINFRLQDYIDRIIVAIMETNPSILEVK

Biological target: HCMV glycoprotein M (gM, UL100) in HCMV-infected cells (HCMV strain AD169)
Sequence (P16733 whole entry): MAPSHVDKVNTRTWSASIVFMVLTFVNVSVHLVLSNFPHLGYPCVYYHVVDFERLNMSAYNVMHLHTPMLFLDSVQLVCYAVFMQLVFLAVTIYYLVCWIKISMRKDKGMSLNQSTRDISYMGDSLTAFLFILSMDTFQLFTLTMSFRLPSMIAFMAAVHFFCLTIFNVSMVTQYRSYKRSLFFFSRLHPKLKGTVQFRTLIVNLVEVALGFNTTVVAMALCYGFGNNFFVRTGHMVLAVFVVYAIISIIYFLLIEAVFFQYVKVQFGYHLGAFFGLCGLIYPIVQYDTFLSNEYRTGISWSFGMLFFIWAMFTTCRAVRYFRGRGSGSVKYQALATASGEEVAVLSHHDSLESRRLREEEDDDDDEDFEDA
Assay: FRET or BRET

Row | Binder | average FRET efficiency
1 | B1 | 27%
2 | B2 | < 2%
